Measured values as given in publication PMC3643599.

Assays:
His-TDP (101-261) = His-TDP (101-261) (human, UniProt Q13148 101-261); assay: lysine acetylation footprinting MS
GST-TDP (101-261) = GST-TDP (101-261) (human, UniProt Q13148 101-261); assay: CD titration
Sequence of GST-TDP (101-261) (Q13148 101-261): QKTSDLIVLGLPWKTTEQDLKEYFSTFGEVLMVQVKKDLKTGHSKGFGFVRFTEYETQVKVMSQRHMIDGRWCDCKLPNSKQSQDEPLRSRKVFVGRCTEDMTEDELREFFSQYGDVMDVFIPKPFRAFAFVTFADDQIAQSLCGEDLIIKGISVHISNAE

Sequence of His-TDP (101-261) (Q13148 101-261): as above

UGUGUGUGUGUG (ssRNA) [(UG)6]
binding result (His-TDP (101-261)): binds
binding result (GST-TDP (101-261)): binds
